Experimental data taken from the supplement of paper PMC10065799, “High-throughput profiling of sequence recognition by tyrosine kinases and SH2 domains using bacterial peptide display” (eLife, 2023).

biological target: Hck (UniProt P08631); test: phosphorylation enrichment, bacterial display (enrichment ratio); higher = better substrate or ligand; peptides without Tyr show the background
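Also: 11-residue human phosphosite peptides and single-mutation variants displayed on the E. coli surface, counted by deep sequencing, each peptide's frequency after selection divided by its frequency in the unselected input library; frequency after pTyr selection over input frequency; kinase dosed for 20-30% of maximal phosphorylation in three min.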

Sequence of Hck (P08631 whole entry, looked up): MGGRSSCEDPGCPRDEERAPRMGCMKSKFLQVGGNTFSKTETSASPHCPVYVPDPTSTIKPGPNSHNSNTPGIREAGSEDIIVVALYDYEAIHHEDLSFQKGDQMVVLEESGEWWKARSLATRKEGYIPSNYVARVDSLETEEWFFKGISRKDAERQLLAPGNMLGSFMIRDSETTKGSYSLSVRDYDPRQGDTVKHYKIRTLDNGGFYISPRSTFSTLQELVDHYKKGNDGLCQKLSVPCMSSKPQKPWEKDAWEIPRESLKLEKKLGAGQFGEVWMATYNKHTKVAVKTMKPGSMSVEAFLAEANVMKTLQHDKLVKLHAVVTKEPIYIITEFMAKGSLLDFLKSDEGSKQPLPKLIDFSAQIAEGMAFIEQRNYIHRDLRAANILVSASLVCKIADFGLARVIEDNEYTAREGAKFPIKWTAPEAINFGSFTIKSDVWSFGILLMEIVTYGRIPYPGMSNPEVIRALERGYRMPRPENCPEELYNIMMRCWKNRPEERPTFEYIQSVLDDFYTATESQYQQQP

Sequence	phosphorylation enrichment
LTERGYSFTTK [ACTG1_Y198_T203K]	0.911
GLAKGYIDPET [CSNK1G2_Y195_E194G]	0.513
KRFRIYHLAIS [BRCA2_Y3009_T3013I_YF]	0.494
LEYNEYFRDLN [HPRT1_Y198_D194E]	0.847
RDMNAYIRPSP [MMAA_Y207]	0.8
HELYVYKCDEN [DOCK3_Y548]	0.99
EIRTQYEVMAS [GFAP_Y242_A244V]	0.49
FADIAYNFHHG [PAH_Y166_R169H_YF]	0.528
DAPVVYLGSFG [PRAG1_Y132_R137G]	0.631
VVEFGYEFFAK [PPP1CB_Y254_D252Y_YF]	0.559
AIMSFYATLID [RYR1_Y2426_A2428T]	0.585
TLDTDYQMTKR [ADA_Y308]	0.445
NKFTTYLPRLP [C9orf24_Y126_YF]	0.507
GFRVFYTPDSR [PTPRF_Y451_YF]	0.564
PYIDSYEKDVA [PGM1_Y521_L516P]	0.725
GIFEDYVEGLR [MYL6_Y89_T85I_YF]	0.484
HFECKYVINAI [MAOA_Y268_YF]	0.566
RHFTTYDTNGR [CLCA1_Y665_Y661H]	0.835
QQLQGYVPSNY [FRK_Y99_I100V]	0.537
IGHGSYAKVLL [PRKCZ_Y263_R260H]	0.523
SDYSRYARTSI [TERT_Y949_S948R]	0.428
PKSLFYLLLKL [TRPC6_Y775]	0.716
AIYRRYSKFFD [SH3PXD2B_Y45]	0.594
NLNGKYNKPRA [ANGPTL3_Y417]	0.362
LITTLYIGFLG [KCNQ1_Y267]	1.51
TMKSHYMELFD [BBS2_Y644_R643H_YF]	0.601
VVLGSYDRLRV [IFT172_Y260]	1.11
HNLYSYPTKHE [MYO3A_Y1396]	8.1
APNEFYDGDHD [HDAC3_Y414]	0.769

biological target: Jak2 (UniProt O60674); test: as above
Sequence (O60674 whole entry, looked up): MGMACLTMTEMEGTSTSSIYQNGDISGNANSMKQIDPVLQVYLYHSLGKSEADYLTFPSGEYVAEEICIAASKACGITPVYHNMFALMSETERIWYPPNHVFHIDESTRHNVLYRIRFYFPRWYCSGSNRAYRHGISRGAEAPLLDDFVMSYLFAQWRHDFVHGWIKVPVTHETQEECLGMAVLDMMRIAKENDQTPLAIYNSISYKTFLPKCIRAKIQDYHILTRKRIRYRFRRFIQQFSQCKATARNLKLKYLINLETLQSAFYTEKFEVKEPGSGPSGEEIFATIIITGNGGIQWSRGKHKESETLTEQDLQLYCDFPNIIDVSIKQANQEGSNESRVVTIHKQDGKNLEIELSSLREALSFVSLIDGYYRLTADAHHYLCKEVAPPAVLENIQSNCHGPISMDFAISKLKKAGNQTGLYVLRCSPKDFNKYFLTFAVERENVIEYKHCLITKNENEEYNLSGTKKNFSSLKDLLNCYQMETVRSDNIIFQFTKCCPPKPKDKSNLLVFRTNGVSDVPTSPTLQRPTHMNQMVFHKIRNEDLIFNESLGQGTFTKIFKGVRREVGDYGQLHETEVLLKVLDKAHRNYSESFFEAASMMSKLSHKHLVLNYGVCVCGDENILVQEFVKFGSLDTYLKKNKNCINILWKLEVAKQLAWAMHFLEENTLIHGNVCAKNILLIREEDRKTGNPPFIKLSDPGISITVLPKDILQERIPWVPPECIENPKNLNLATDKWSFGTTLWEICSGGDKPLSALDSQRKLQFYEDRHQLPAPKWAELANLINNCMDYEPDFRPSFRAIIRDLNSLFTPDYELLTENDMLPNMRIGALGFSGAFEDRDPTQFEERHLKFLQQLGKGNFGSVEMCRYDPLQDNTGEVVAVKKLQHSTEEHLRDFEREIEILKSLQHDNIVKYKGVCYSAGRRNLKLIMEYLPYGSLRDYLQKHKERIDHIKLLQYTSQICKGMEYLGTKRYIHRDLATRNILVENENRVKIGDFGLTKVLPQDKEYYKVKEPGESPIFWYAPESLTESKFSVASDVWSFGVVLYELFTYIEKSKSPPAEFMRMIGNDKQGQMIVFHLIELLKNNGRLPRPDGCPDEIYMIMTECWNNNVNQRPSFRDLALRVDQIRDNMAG

Sequence	phosphorylation enrichment
LTERGYSFTTK [ACTG1_Y198_T203K]	1.65
GLAKGYIDPET [CSNK1G2_Y195_E194G]	0.694
KRFRIYHLAIS [BRCA2_Y3009_T3013I_YF]	0.86
LEYNEYFRDLN [HPRT1_Y198_D194E]	2.17
RDMNAYIRPSP [MMAA_Y207]	1.57
HELYVYKCDEN [DOCK3_Y548]	1.29
EIRTQYEVMAS [GFAP_Y242_A244V]	1.07
FADIAYNFHHG [PAH_Y166_R169H_YF]	0.43
DAPVVYLGSFG [PRAG1_Y132_R137G]	0.776
VVEFGYEFFAK [PPP1CB_Y254_D252Y_YF]	1.41
AIMSFYATLID [RYR1_Y2426_A2428T]	1.83
TLDTDYQMTKR [ADA_Y308]	0.632
NKFTTYLPRLP [C9orf24_Y126_YF]	0.666
GFRVFYTPDSR [PTPRF_Y451_YF]	1.03
PYIDSYEKDVA [PGM1_Y521_L516P]	1.61
GIFEDYVEGLR [MYL6_Y89_T85I_YF]	1.22
HFECKYVINAI [MAOA_Y268_YF]	1.47
RHFTTYDTNGR [CLCA1_Y665_Y661H]	0.844
QQLQGYVPSNY [FRK_Y99_I100V]	0.822
IGHGSYAKVLL [PRKCZ_Y263_R260H]	0.662
SDYSRYARTSI [TERT_Y949_S948R]	0.549
PKSLFYLLLKL [TRPC6_Y775]	4.8
AIYRRYSKFFD [SH3PXD2B_Y45]	0.83
NLNGKYNKPRA [ANGPTL3_Y417]	0.8
LITTLYIGFLG [KCNQ1_Y267]	2.33
TMKSHYMELFD [BBS2_Y644_R643H_YF]	0.772
VVLGSYDRLRV [IFT172_Y260]	0.546
HNLYSYPTKHE [MYO3A_Y1396]	0.561
APNEFYDGDHD [HDAC3_Y414]	1.32

biological target: MERTK (UniProt Q12866); test: as above
Sequence (Q12866 whole entry, looked up): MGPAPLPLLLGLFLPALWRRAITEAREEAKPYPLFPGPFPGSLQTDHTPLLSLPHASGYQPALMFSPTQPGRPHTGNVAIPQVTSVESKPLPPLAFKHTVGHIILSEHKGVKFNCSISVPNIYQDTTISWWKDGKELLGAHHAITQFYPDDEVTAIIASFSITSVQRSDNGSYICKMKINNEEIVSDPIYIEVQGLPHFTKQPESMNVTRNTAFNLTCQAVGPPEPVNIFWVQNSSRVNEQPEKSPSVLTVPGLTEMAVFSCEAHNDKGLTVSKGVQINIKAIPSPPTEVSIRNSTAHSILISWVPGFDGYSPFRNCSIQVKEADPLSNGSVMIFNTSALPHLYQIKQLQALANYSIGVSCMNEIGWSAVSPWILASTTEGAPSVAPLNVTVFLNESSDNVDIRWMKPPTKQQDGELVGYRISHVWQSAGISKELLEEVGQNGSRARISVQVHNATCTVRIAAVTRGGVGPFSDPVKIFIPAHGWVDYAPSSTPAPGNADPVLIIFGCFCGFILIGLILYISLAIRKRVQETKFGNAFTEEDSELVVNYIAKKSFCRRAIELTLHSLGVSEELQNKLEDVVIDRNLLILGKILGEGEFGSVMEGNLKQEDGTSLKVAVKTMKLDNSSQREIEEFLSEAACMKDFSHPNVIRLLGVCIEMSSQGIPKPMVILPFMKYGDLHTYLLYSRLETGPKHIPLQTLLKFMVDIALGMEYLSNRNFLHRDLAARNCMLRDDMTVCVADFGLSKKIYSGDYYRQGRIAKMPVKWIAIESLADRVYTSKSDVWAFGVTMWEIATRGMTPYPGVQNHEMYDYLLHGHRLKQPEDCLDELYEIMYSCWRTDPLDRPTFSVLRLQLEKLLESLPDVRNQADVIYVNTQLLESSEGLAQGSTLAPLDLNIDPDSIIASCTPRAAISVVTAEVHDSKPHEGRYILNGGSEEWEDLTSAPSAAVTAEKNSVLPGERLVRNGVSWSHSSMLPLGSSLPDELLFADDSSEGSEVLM

Sequence	phosphorylation enrichment
LTERGYSFTTK [ACTG1_Y198_T203K]	1.79
GLAKGYIDPET [CSNK1G2_Y195_E194G]	0.472
KRFRIYHLAIS [BRCA2_Y3009_T3013I_YF]	0.484
LEYNEYFRDLN [HPRT1_Y198_D194E]	0.605
RDMNAYIRPSP [MMAA_Y207]	1.02
HELYVYKCDEN [DOCK3_Y548]	0.549
EIRTQYEVMAS [GFAP_Y242_A244V]	0.378
FADIAYNFHHG [PAH_Y166_R169H_YF]	0.406
DAPVVYLGSFG [PRAG1_Y132_R137G]	0.437
VVEFGYEFFAK [PPP1CB_Y254_D252Y_YF]	0.488
AIMSFYATLID [RYR1_Y2426_A2428T]	0.59
TLDTDYQMTKR [ADA_Y308]	0.363
NKFTTYLPRLP [C9orf24_Y126_YF]	0.42
GFRVFYTPDSR [PTPRF_Y451_YF]	0.37
PYIDSYEKDVA [PGM1_Y521_L516P]	0.763
GIFEDYVEGLR [MYL6_Y89_T85I_YF]	0.393
HFECKYVINAI [MAOA_Y268_YF]	0.529
RHFTTYDTNGR [CLCA1_Y665_Y661H]	0.707
QQLQGYVPSNY [FRK_Y99_I100V]	0.396
IGHGSYAKVLL [PRKCZ_Y263_R260H]	0.57
SDYSRYARTSI [TERT_Y949_S948R]	0.444
PKSLFYLLLKL [TRPC6_Y775]	1.54
AIYRRYSKFFD [SH3PXD2B_Y45]	0.596
NLNGKYNKPRA [ANGPTL3_Y417]	0.471
LITTLYIGFLG [KCNQ1_Y267]	0.989
TMKSHYMELFD [BBS2_Y644_R643H_YF]	0.893
VVLGSYDRLRV [IFT172_Y260]	0.341
HNLYSYPTKHE [MYO3A_Y1396]	13.6
APNEFYDGDHD [HDAC3_Y414]	0.602

test system: c-Abl (mouse); test: as above

Sequence	phosphorylation enrichment
LTERGYSFTTK [ACTG1_Y198_T203K]	0.995
GLAKGYIDPET [CSNK1G2_Y195_E194G]	0.454
KRFRIYHLAIS [BRCA2_Y3009_T3013I_YF]	1.38
LEYNEYFRDLN [HPRT1_Y198_D194E]	1.3
RDMNAYIRPSP [MMAA_Y207]	1.32
HELYVYKCDEN [DOCK3_Y548]	0.6
EIRTQYEVMAS [GFAP_Y242_A244V]	0.615
FADIAYNFHHG [PAH_Y166_R169H_YF]	0.354
DAPVVYLGSFG [PRAG1_Y132_R137G]	0.671
VVEFGYEFFAK [PPP1CB_Y254_D252Y_YF]	0.965
AIMSFYATLID [RYR1_Y2426_A2428T]	1.07
TLDTDYQMTKR [ADA_Y308]	0.499
NKFTTYLPRLP [C9orf24_Y126_YF]	0.482
GFRVFYTPDSR [PTPRF_Y451_YF]	0.612
PYIDSYEKDVA [PGM1_Y521_L516P]	0.961
GIFEDYVEGLR [MYL6_Y89_T85I_YF]	0.857
HFECKYVINAI [MAOA_Y268_YF]	1.23
RHFTTYDTNGR [CLCA1_Y665_Y661H]	0.618
QQLQGYVPSNY [FRK_Y99_I100V]	0.64
IGHGSYAKVLL [PRKCZ_Y263_R260H]	0.599
SDYSRYARTSI [TERT_Y949_S948R]	0.46
PKSLFYLLLKL [TRPC6_Y775]	2.62
AIYRRYSKFFD [SH3PXD2B_Y45]	0.783
NLNGKYNKPRA [ANGPTL3_Y417]	0.696
LITTLYIGFLG [KCNQ1_Y267]	2.22
TMKSHYMELFD [BBS2_Y644_R643H_YF]	0.572
VVLGSYDRLRV [IFT172_Y260]	0.452
HNLYSYPTKHE [MYO3A_Y1396]	3.28
APNEFYDGDHD [HDAC3_Y414]	1.04
